B3: murine monoclonal antibody 7D8 (ATCC Accession Number PTA-9468) (antibody, mouse IgG2b, V domains shown)
VH: EVQLVESGGRLVQPKGSLKLSCAASGFTFNTYAMYWIRQAPGKGLEWVARIRSKSNNYAIYYADSVKDRFTIFRDDSQSMLYLQMNNLKTEDTAMYYCVRPYSDSFAYWGQGTLVTVSA
VL: DVVMTQTPLSLPVSLGDQASISCRSSLSLVHSTGNTYLHWYLQKPGQSPKLLIYKVSNRFSGVPDRFSGSGSGTYFTLKISRVEAEDLGVYFCSQSTHVPFTFGGGTKLEIK
notes: Murine IgG2b kappa; also called mAb 7D8; 7D8.29.19.47

In one experiment the target is T1, peptide 66, CGGHEAT.
T1 peptide: CGGHEAT
As to the kind of experiment: BIAcore, antibody binding to peptides.

For another experiment, the target named is T2, peptide 68, CGGHEDTM
T2 peptide: CGGHEDTM
Nature of the experiment: BIAcore, antibody binding to peptides. (In SPR one partner is held on a chip, and binding of the other changes the refractive index at the surface.)

For another experiment, the target named is T3, peptide 69, CGGHEDTMA
T3 peptide: CGGHEDTMA
As to the kind of experiment: BIAcore, antibody binding to peptides.

Another experiment has as its target T4, peptide 70, CGGHEDTMAD
T4 peptide: CGGHEDTMAD
Nature of the experiment: BIAcore, antibody binding to peptides.

Experiment [1] deals with T5, murine AA amyloid (AA fibrils; amyloid enhancing factor extract, AEF) (mouse).
T5 construct: also called Mouse AA (AEF); murine AA AEF
T5 sequence (P05366 whole entry, looked up): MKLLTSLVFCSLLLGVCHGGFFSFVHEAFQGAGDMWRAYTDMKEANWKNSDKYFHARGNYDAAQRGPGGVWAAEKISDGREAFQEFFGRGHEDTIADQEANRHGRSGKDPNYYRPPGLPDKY
Nature of the experiment: ELISA, purified mAb on mouse AA amyloid extract (AEF). Here is the method:
(§1) Protein Mr markers (Std) are, form top to bottom: 176, 119, 75, 49, 39, 25 and 19 kDa. The interaction of the purified mAbs with immunizing peptide p#39, control peptide (p#41), murine and human AA extracts were determined by ELISA as described above.
(§2) In contrast, even at the highest concentration of mAb used (100 nM) there was little detectable binding to the p#41 peptide (FIG. 33—Each point represents the mean±SE, (n=3 at each concentration)). […] The calculated EC50 values for the mAbs binding to mouse AA extract were essentially identical to those obtained when the p#39 peptide was used as the substrate (FIG. 34; Table 5). […] Because the EC50 value for 7D8 mAb binding was the lowest of the 3 antibodies tested, Applicants selected this reagent for in vivo co-localization and imaging studies. The 2 amino acid substitutions in the human SAA sequence with respect to the murine protein affected the EC50 values.
(In general: An ELISA detects its analyte on a solid surface through an enzyme-linked reagent.)

The target of experiment [2] is T6, human AA amyloid (human renal AA amyloid extract; AA deposits in human tissue) (human).
T6 construct: also called human AA amyloid extract; human AA amyloid fibrils
T6 sequence (P0DJI8 19-94, looked up): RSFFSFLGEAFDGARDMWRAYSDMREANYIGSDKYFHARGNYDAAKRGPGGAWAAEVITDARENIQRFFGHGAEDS
Nature of the experiment: ELISA, purified mAb on plate-dried human AA amyloid extract. The procedure:
as §1, §2

The target in experiment [3] is T7, synthetic Vλ6 Wil fibrils.
T7 construct: Fibrillar (aggregated) form, sonicated and amine-coupled to a CM-5 chip (about 16,000 RU); also called immobilized Vλ6 Wil fibrils
As to the kind of experiment: SPR (BIAcore), mAb at 6.6 nM over immobilized synthetic Vλ6 Wil fibrils. Here is the method:
Surface plasmon resonance was used to establish the binding kinetics of several monoclonal antibodies with Vλ6 Wil fibrils and monomer. […] The deflection (expressed in RU) during the binding phase was similar for mAbs 7D8 and 2A4 but was 50% lower for 8G9.
(§3) Sensograms were run in HBS-EP buffer from BIAcore at 20 μL/min in the Fc1 (Vλ6 Wil fibrils) minus Fc-2 (control) mode. Samples containing mAb or mAb plus peptide inhibitors were injected (70 μL) and the sensograms collected using the delayed-wash function for 200 sec. Data were analyzed in the BIAevalutation software, using the 1:1 Langmuir model with mass-action correction.

Experiment [4] addresses T5, murine AA amyloid (AA fibrils; amyloid …). As to the kind of experiment: ELISA, hybridoma culture supernatant on murine AA AEF; not corrected for mAb concentration. From the text:
The interaction of 2A4, 8G9 and 7D8 mAbs with AA amyloid was initially tested by ELISA and the data, given in FIG. 31, analyzed using SigmaPlot (SPSS Inc.). Each point represents the mean±SE (n=3). A culture supernatant from an irrelevant hybridoma was used as a control (Ctrl Culture Sup). […] (In addition, the immunohistochemical reactivity of the day 1 material was greater than the day 2 samples). […] Because of the low signal and high variability found with the culture supernatants and to determine more accurately the relative binding affinity of the mAbs for murine and human AA amyloid fibrils (as well as to provide material for in vivo biodistribution studies) it was necessary to isolate the mAbs by protein A affinity chromatography. The purity of the isolated mAbs was established SDS-PAGE using 10% acrylamide gels under reducing and non-reducing conditions (FIG. 32). Samples in lanes 1-4 treated with mercaptoethanol, lanes 5-9 without. Gel was stained with Coomassie blue: mAb 8G9, lanes 1 and 6; mAb 2A4, lanes 2 and 7; mAb 7D8, lanes 3 and 8; SP2/0 control supernatant, lanes 4 and 9; blank, lane 5. Protein Mr markers (Std) are, form top to bottom: 176, 119, 75, 49, 39, 25 and 19 kDa. The interaction of the purified mAbs with immunizing peptide p#39, control peptide (p#41), murine and human AA extracts were determined by ELISA as described above.

A further experiment has as its target T8, peptide 65, CGGHADT.
T8 peptide: CGGHADT
Nature of the experiment: BIAcore, antibody binding to peptides.

The next experiment concerns the target T9, peptide 71, CGGHED.
T9 peptide: CGGHED
As to the kind of experiment: BIAcore, antibody binding to peptides.

Experiment [5] concerns the target B3. As to the kind of experiment: BIAcore competition: peptide p41 in solution with mAb 7D8 (6.6 nM) injected over immobilized Vλ6 Wil fibrils. Here is the method:
FIG. 28: Binding kinetics of mAb 7D8 to synthetic Vλ6 Wil fibrils in the presence of the p39 and p41 peptides. The interaction of the mAb 7D8 at 6.6 nM with immobilized Vλ6 Will fibrils was measured by BIAcore in the presence of peptides p39 and p41 at 1 or 20 μg/mL.
To assess the specificity of the reaction and ensure that the binding of the mAbs with the fibrils occurred via the classic F(ab)-antigen interaction (as opposed to Fc-mediated binding or non-specific adsorption), binding data were acquired in the presence of the immunogen peptide (p39) at 20 and 1 μg/mL (FIG. 8). […] In the presence of 20 μg/mL p41 peptide, the binding kinetics for mAb 7D8 with Vλ6 Wil fibrils were identical to 7D8 alone.
as §3

B1: murine monoclonal antibody 2A4 (ATCC Accession Number PTA-9662) (antibody, V domains shown)
VH: EVQLVESGGRLVQPKGSLKLSCAASGFTFNTYAMYWIRQAPGKGLEWVARIRSKSNNYAIYYADSVKDRFTIFRDDSQSMLYLQMNNLKTEDTAMYYCVRPYSDSFAYWGQGTLVTVSA
VL: DVVMTQTPLSLPVSLGDQASISCRSSQSLVHSTGNTYLHWYLQKPGQSPKLLIYKVSNRFSGVPDRFSGSGSGTYFTLKISRVEAEDLGVYFCSQSTHVPFTFGGGTKLEIK
notes: Murine IgG2b kappa; Used as hybridoma culture supernatant or as protein A-purified mAb; also called mAb 2A4; 2A4.20.44.77
A word on the EC50: it is the concentration at which the effect is half-maximal. The Kd is a measure of binding affinity in units of concentration. Higher therefore signals weaker binding. Regarding B1, the binding result is given as “no binding” with peptide 66, CGGHEAT; “no binding” in the experiment with peptide 68, CGGHEDTM; “no binding” in the experiment with peptide 69, CGGHEDTMA; “no binding” with peptide 70, CGGHEDTMAD. Besides, the EC50 was found to be 4.09 nM in experiment [1] and 26.4 nM in experiment [2]. Besides, the Kd in experiment [3] is about 1 nM. Besides, in experiment [4], the “supernatant dilution after which reactivity is absent” value (shortened to “supernatant dilution”) is ~64 fold dilution (1:x).

B2: murine monoclonal antibody 8G9 (antibody, mouse IgG2b, V domains shown)
VH: EVQLVESGGRLVQPKGSLKLSCAASGFTFNTYAMYWIRQAPGKGLEWVARIRSKSNNYAIYYADSVKDRFTIFRDDSQSMLYLQMNNLKTEDTAMYYCVRPYSDSFAYWGQGTLVTVSA
VL: DVVMTQTPLSLPVSLGDQASISCRSSQSLVHSTGNTYLHWYLQKPGQSPKLLIYKVSNRFSGVPDRFSGSGSGTYFTLKISRVEAEDLGVYFCSQSTHVPFTFGGGTKLEIK
notes: Murine IgG2b kappa; also called mAb 8G9; 8G9.3.4.51.22
Regarding B2, the half-maximal effective concentration (EC50) is 5.64 nM in experiment [1] and 31.7 nM in [2]. This molecule gave a Kd in [3] of about 1 nM. The “supernatant dilution” value in experiment [4] is ~64 fold dilution (1:x).
For the molecule B3, the binding result with peptide 65, CGGHADT is “no binding”; with peptide 66, CGGHEAT it was “no binding”; in the experiment with peptide 68, CGGHEDTM, “no binding”; in the experiment with peptide 69, CGGHEDTMA, “no binding”; in the experiment with peptide 70, CGGHEDTMAD it was “no binding”; with peptide 71, CGGHED it was “no binding”. Also, the 50% effective concentration (EC50) in experiment [1] came out at 1.84 nM; in [2], 13.3 nM. Besides, in experiment [3], the Kd was about 1 nM. In experiment [4], the “supernatant dilution” value was ~64 fold dilution (1:x).
In the case of GHEDTIADQE (also called p41; p#41) [peptide 41, GHEDTIADQE], the binding result in [5] is reported as “no binding (tested: 20 µg/mL)”.

For the origin of these results see US20120039878A1 (ELAN PHARMACEUTICALS, published 2012).
